To fix the notation:
B1: Hairpin Ribozyme (parent)
chain: GUCCUCUUUCACGUGCGCGUGAAAGAGAGAAGUGAACCAGAGAAACACACGUUGUGGUAUAUUACCUGGUA

The data set covers variants of B1. The experiment in a line: self-cleavage, relative activity (ratio to wild type); higher = more cleavage; co-transcriptional.
As to C6A C48U, the self-cleavage was found to be 0.158. The figure for C6U G17U is 0.859. Turning to C6A U62G, the self-cleavage amounted to 0.0891. C6A U62A: the self-cleavage came out at 0.127.

For C6G C10G, the self-cleavage worked out at 0.277. As to C6U G51U, the self-cleavage came out at 0.88. As to C6A U7C, the self-cleavage is 0.609. C6G G40U: the self-cleavage is 0.103. As for C6U G69A, the self-cleavage was determined as 0.379. Turning to C6U U33G, the self-cleavage was 0.126.

As to C6A G29U, the self-cleavage is 0.124.

Turning to C6A G29A, the self-cleavage is 0.129. For C6A U70G, the self-cleavage turned out to be 0.325. On to C6U U20C, for which the self-cleavage came out at 0.806. Consider C6U U20A, for which the self-cleavage amounted to 0.764.

With C6U G25A, the self-cleavage is 0.751. As for C6U G25U, the self-cleavage was 0.762. In the case of C6G C38A, the self-cleavage turned out to be 0.103.

In the case of C6G A11C, the self-cleavage is 0.45. On to C6G A11U, for which the self-cleavage was 0.314.

Take C6G U14C: the self-cleavage was determined as 0.449.

As to C6U U14C, the self-cleavage stood at 0.932. Take C6U U14G: the self-cleavage was 0.791. The figure for C6U U14A is 0.853. Regarding C6G A71C, the self-cleavage amounted to 0.855. Consider C6U U58G, for which the self-cleavage came to 0.663. Turning to C6U U58C, the self-cleavage came out at 0.893. The figure for C6G C65A is 0.527; for C6U U9G it is 0.438; for C6U U9C it is 0.369.

In the case of C6U U60G, the self-cleavage came out at 0.502. With C6U U60A, the self-cleavage worked out at 0.732. On to C6U A31U, for which the self-cleavage was 0.101. In the case of C6G U67A, the self-cleavage came to 0.15. The figure for C6A U33C is 0.0869; for C6U A45G it is 0.135; for C6U A45U it is 0.194.

Consider C6U G34C, for which the self-cleavage came out at 1.1.

Take C6U G34A: the self-cleavage stood at 0.863. In the case of C6A G42A, the self-cleavage was determined as 0.161. As to C6A U55G, the self-cleavage came out at 0.14. The value for C6A U55A was 0.202; that for C6G G15C was 0.545; that for C6U G13C was 0.65. The figure for C6U G13A is 0.712; for C6U A64U it is 0.16. As for C6U A64C, the self-cleavage was 0.238.

For the variant C6U A64G, the self-cleavage was found to be 0.514.

C6G G54C: the self-cleavage is 0.265. Regarding C6U A43U, the self-cleavage worked out at 0.119.

On to C6A U14G, for which the self-cleavage came to 0.499.

Regarding C6A U20G, the self-cleavage was found to be 0.518. Regarding C6G U70G, the self-cleavage worked out at 0.361. Consider C6G U70A, for which the self-cleavage is 0.399.

On to C6U A23G, for which the self-cleavage turned out to be 0.768.

Consider C6U A22G, for which the self-cleavage turned out to be 0.796. The figure for C6A G51U is 0.58; for C6A G34A it is 0.817. Take C6G G42U: the self-cleavage came out at 0.113. As for C6U C46U, the self-cleavage was 0.176. For the variant C6A U60A, the self-cleavage was 0.541. The value for C6G G69A was 0.251. The value for C6U A35U was 0.765; that for C6U C10G was 0.416; that for C6G G27C was 0.174. Consider C6G G27U, for which the self-cleavage was 0.161. For the variant C6G G27A, the self-cleavage came to 0.135. In the case of C6U U52G, the self-cleavage amounted to 0.797. Turning to C6G G57U, the self-cleavage stood at 0.238. C6U A11C: the self-cleavage was found to be 0.411.

On to C6U A11G, for which the self-cleavage is 0.816. As for C6U A11U, the self-cleavage came to 0.578. For C6A U8A, the self-cleavage worked out at 0.319. The value for C6G A45U was 0.101; that for C6G A45G was 0.0674. As to C6A G32U, the self-cleavage worked out at 0.133. On to C6A G32A, for which the self-cleavage was 0.122.

C6A G32C: the self-cleavage was determined as 0.133. On to C6U C37G, for which the self-cleavage stood at 0.372. For the variant C6U G40A, the self-cleavage stood at 0.344. The figure for C6G A36G is 0.768; for C6A G27C it is 0.118. As for C6G A24U, the self-cleavage turned out to be 0.331. As to C6G C16A, the self-cleavage is 0.54. As for C6U C50A, the self-cleavage was determined as 0.24. In the case of C6U C50G, the self-cleavage came out at 0.299. As to C6U C50U, the self-cleavage turned out to be 0.386. On to C6U G21C, for which the self-cleavage is 0.597. C6G G34U: the self-cleavage came to 0.982. In the case of C6G A31C, the self-cleavage worked out at 0.0766. For C6G A31U, the self-cleavage amounted to 0.0803. The figure for C6A G19U is 0.505; for C6U C48G it is 0.116. As to C6G A47G, the self-cleavage came out at 0.0875. For the variant C6G A47U, the self-cleavage was determined as 0.13. As to C6U C65A, the self-cleavage amounted to 0.776. For the variant C6U G56A, the self-cleavage is 0.193. Turning to C6U G57A, the self-cleavage turned out to be 0.117.

Take C6U G57U: the self-cleavage worked out at 0.324. As to C6G G25A, the self-cleavage is 0.523. The figure for C6G U62C is 0.116; for C6G A22C it is 0.342; for C6U G29C it is 0.13. The value for C6U C18G was 0.775; that for C6U C18U was 0.82. C6U G27U: the self-cleavage was 0.147. With C6U G27C, the self-cleavage was 0.106. On to C6U G27A, for which the self-cleavage amounted to 0.309.

For C6A C38U, the self-cleavage was found to be 0.354. As to C6A C38G, the self-cleavage was found to be 0.149. For the variant C6U A44G, the self-cleavage was determined as 0.132. For the variant C6U A44C, the self-cleavage was 0.119. On to C6G G21U, for which the self-cleavage turned out to be 0.181. The figure for C6G G21C is 0.125; for C6U A24U it is 0.781; for C6U G19U it is 0.715.

C6G A23G: the self-cleavage was found to be 0.446. The figure for C6G A23U is 0.344; for C6U A30G it is 0.128. On to C6U A30C, for which the self-cleavage was 0.205. As to C6G A35U, the self-cleavage came to 0.464. For the variant C6A G54C, the self-cleavage came to 0.209.

For the variant C6U A26G, the self-cleavage amounted to 0.31. As for C6U A26C, the self-cleavage came to 0.29.

As to C6G U7A, the self-cleavage stood at 0.337.

C6U G54A: the self-cleavage was found to be 0.59. As for C6U G54U, the self-cleavage is 0.371. With C6G A26C, the self-cleavage is 0.22. On to C6A G56U, for which the self-cleavage is 0.218. Regarding C6A G56A, the self-cleavage worked out at 0.117.

For the variant C6A G21C, the self-cleavage worked out at 0.364.

For the variant C6G U60C, the self-cleavage turned out to be 0.618. With C6G U53G, the self-cleavage came to 0.454. As to C6G A41U, the self-cleavage is 0.873.

In the case of C6G A64U, the self-cleavage was determined as 0.105.

For C6G A64G, the self-cleavage is 0.365. The figure for C6G A64C is 0.123; for C6G U52A it is 0.433; for C6U A41G it is 0.768. Turning to C6A C65U, the self-cleavage is 0.265. The value for C6A C65G was 0.158; that for C6A U58C was 0.697. With C6G C48A, the self-cleavage was determined as 0.171. Turning to C6U G42C, the self-cleavage was determined as 0.342. As to C6G A59U, the self-cleavage was 0.192. Take C6G A39C: the self-cleavage is 0.299. The figure for C6G A39U is 0.164; for C6G U55A it is 0.13; for C6G U55G it is 0.167. In the case of C6G U55C, the self-cleavage was 0.156. As to C6U A36U, the self-cleavage is 0.54. The value for C6U A36C was 0.705; that for C6A C50G was 0.175; that for C6A C50A was 0.223. For C6G C46U, the self-cleavage amounted to 0.143.

C6G C46A: the self-cleavage came to 0.153. Consider C6A G17A, for which the self-cleavage was 0.663. The figure for C6G C12U is 0.332; for C6G C12A it is 0.572; for C6G C12G it is 0.294. As to C6G C66G, the self-cleavage was 0.166. For the variant C6G A61U, the self-cleavage was found to be 0.183. Consider C6G U20G, for which the self-cleavage was found to be 0.248.

As for C6G U20C, the self-cleavage was 0.368. On to C6U A39U, for which the self-cleavage was determined as 0.381. As for C6U U7A, the self-cleavage turned out to be 0.515. Consider C6A U67G, for which the self-cleavage turned out to be 0.173.

The values above are taken from the RNAGym collection of RNA variant scans (doi:10.7554/elife.80360).
